Biological target: GroEL (Escherichia coli, UniProt P0A6F5 1-548)
Experiment: reconstitution of the complex

Chain of GroEL (P0A6F5 whole entry): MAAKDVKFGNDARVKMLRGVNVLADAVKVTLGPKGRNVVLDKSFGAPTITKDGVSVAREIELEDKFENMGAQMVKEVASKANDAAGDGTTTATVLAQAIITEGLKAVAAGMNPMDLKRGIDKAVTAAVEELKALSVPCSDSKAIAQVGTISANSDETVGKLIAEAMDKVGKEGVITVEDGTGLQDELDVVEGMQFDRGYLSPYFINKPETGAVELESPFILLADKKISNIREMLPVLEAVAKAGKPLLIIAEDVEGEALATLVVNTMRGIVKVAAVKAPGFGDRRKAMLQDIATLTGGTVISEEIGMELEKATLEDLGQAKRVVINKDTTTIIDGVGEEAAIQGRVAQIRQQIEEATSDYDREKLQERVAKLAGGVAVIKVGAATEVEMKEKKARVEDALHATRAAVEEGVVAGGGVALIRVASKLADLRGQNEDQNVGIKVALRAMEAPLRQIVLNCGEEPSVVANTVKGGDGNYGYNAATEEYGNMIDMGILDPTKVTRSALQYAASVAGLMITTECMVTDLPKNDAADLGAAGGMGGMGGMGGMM

B1: GroES (natural protein, Escherichia coli, UniProt P0A6F9 1-97, looked up)
chain: MNIRPLHDRVIVKRKEVETKSAGGIVLTGSAAAKSTRGEVLAVGNGRILENGEVKPLDVKVGDIVIFNDGYGVKSEKIDNEEVLIMSESDILAIVEA
binding result: binds

From PMC9860310 (Proceedings of the National Academy of Sciences of the …, 2022)
